In patent US20240016892A1:
pEC50, pKd: −log10 of the molar value. One block for each substance: values may come before it.

Key:
[1] = target: recombinant human HVEM (human) (UniProt Q92956); assay: BLI (Octet-Red96), tagged rhHVEM immobilised on biosensor
[2] = target: recombinant human LTβR (human) (UniProt P36941); assay: BLI (Octet-Red96), tagged rhLTβR immobilised on biosensor
human 4-1BB-His (human) [3] = target: human 4-1BB-His (human) (UniProt Q07011); assay: MSD 'Human 41BB-Binding Assay': coat h41BB-His (R&D), detect anti-41BBL (R&D), anti-Goat Sulfo; positive control
mouse CD47-Fc (mouse) = mouse CD47-Fc (mouse) (UniProt Q61735); assay: MSD dual-binding sandwich: coat mCD47-Fc (Acro); detect m41BB-His (Acro); anti-His Biotin + Streptavidin Sulfo; labelled Negative Control
[4] = target: recombinant human PVR (human) (UniProt P15151); assay: BLI (Octet-Red96), tagged rhPVR immobilised on biosensor
[5] = target: recombinant human LTβR-Fc (human) (UniProt P36941); assay: MSD sandwich: capture LTβR-Fc; detection PVR-Biotin
[6] = target: recombinant human HVEM-Fc (human) (UniProt Q92956); assay: MSD sandwich: capture HVEM-Fc; detection PVR-Biotin
human 4-1BB-His (human) [7] = target: human 4-1BB-His (human) (UniProt Q07011); assay: MSD 'Human 41BB-Binding Assay': coat h41BB-His (R&D), detect anti-41BBL (R&D), anti-Goat Sulfo; negative control, fit value for a curve that stays near the baseline
mouse CD47-His (mouse) = mouse CD47-His (mouse) (UniProt Q61735); assay: MSD: coat mCD47-His (Acro); detection anti-mouse Sulfo (MSD); labelled Positive Control
mouse 4-1BB-His (mouse) = mouse 4-1BB-His (mouse) (UniProt P20334); assay: MSD: coat m41BB-His (Acro); detection anti-mouse Sulfo (MSD); labelled Negative Control, flat curve
Chain of mouse 4-1BB-His (mouse) (P20334 24-187 limits assumed): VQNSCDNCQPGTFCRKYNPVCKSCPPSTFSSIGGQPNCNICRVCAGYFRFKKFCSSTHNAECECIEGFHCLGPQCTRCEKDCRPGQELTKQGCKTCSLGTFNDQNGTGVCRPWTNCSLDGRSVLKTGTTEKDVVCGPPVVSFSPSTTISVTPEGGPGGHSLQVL

Chain of recombinant human LTβR (human) (P36941 31-227 limits assumed): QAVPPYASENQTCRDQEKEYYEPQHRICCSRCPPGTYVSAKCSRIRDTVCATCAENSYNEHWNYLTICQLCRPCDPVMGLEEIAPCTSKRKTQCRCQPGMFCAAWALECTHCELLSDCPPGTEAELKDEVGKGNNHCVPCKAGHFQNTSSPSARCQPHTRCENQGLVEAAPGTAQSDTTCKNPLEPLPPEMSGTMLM
Chain of recombinant human HVEM (human) (Q92956 39-202 limits assumed): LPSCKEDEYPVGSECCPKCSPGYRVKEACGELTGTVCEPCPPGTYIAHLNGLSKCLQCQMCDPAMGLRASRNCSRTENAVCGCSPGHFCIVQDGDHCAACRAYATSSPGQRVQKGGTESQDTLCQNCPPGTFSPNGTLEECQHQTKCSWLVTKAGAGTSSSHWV
Chain of human 4-1BB-His (human) (Q07011 24-186 limits assumed): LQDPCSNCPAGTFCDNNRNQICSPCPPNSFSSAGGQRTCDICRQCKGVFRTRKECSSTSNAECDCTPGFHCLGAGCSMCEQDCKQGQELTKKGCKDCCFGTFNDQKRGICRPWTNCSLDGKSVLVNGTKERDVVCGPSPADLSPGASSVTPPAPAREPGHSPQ
Chain of mouse CD47-Fc (mouse) (Q61735 19-140 limits assumed): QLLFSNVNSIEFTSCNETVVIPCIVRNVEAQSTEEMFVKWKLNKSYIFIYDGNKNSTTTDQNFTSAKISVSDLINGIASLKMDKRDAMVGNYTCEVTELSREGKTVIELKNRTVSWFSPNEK
Chain of mouse CD47-His (mouse) (Q61735 19-140 limits assumed): as above
Chain of recombinant human LTβR-Fc (human) (P36941 31-227 limits assumed): as the sequence (P36941 31-227 limits assumed) above
Chain of recombinant human HVEM-Fc (human) (Q92956 39-202 limits assumed): as the sequence (Q92956 39-202 limits assumed) above

pKd [1]: 8.67
koff [1]: 0.000876 s⁻¹
kon [1]: 410000 M⁻¹ s⁻¹
pKd [2]: 7.55
koff [2]: 0.00754 s⁻¹
kon [2]: 266000 M⁻¹ s⁻¹
Substance: Fc-LIGHT single-sided fusion protein control (Fc fusion)

pEC50 (human 4-1BB-His (human) [3]): 9.20
Substance: PD-1-Fc-4-1BBL chimeric protein (as used in Example 14) (Fc fusion)

pEC50 (mouse CD47-Fc (mouse)): 4.35
Substance: PD-1-Fc-4-1BBL chimeric protein (as used in Example 15) (Fc fusion)

pKd [4]: 8.28
koff [4]: 0.00154 s⁻¹
kon [4]: 296000 M⁻¹ s⁻¹
Substance: TIGIT-Fc single-sided fusion protein control (Fc fusion)

EC50 (read off the curve) [5]: 3 nM
EC50 (read off the curve) [6]: 5 nM
Substance: TIGIT-Fc(IgG1)-LIGHT chimeric protein (Fc fusion)

pEC50 (human 4-1BB-His (human) [7]): 6.84
Substance: hSIRPα-Fc-CD40L chimeric protein (Fc fusion)

pEC50 (mouse CD47-His (mouse)): 9.43
pEC50 (mouse 4-1BB-His (mouse)): 5.27
Substance: mSIRPα-Fc-CD40L chimeric protein (Fc fusion)
